Assay results taken from publication PMC11477141, “Chemokine Receptor N-Terminus Charge Dictates Reliance on Post-Translational Modifications for Effective Ligand Capture and Following Boosting by Defense Peptides” (International Journal of Molecular Sciences, 2024).
Where two headings read alike, the source gives them in different places. Values belong to the molecule of their own block, whether it stands above or below them. Where no end group is shown, it is not given here.

What was measured:
CCR1 = molecular target: T1, CCR1 (Homo sapiens, UniProt P32246); test: BRET CAMYEL cAMP sensor assay of ligand-induced Gαi signaling via CCR1; assay type: cell-based; conditions: n = 3; for boosting of CCL5-induced Gαi signaling via CCR1 / boosting of CCL7-induced Gαi signaling via CCR1 / effect on CCL3-induced Gαi signaling via CCR1: CHO-K1 cells, 10 µM peptide, chemokine 0-100 nM
T1 construct: expressed in transfected cells; host or cells: CHO-K1, CHO-pgsB618 (GAG-minus), HEK293 WT / DeltaSia / sC
T1 sequence (P32246 1-355): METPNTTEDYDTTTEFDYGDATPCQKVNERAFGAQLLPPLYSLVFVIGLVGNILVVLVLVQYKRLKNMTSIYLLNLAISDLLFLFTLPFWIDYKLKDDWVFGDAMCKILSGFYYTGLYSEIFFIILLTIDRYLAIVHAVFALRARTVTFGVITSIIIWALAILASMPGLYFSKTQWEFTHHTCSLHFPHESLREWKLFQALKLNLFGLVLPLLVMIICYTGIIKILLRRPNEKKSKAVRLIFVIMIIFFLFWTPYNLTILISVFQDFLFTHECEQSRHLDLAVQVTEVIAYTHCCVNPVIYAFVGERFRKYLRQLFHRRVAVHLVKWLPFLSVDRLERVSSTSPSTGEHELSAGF
Method: For quantification of signaling initiated immediate downstream of receptor activation, we used the cAMP binding CAMYEL sensor to perform bioluminescence resonance energy transfer (BRET)-based assays. Shortly, in this assay increased receptor activation leads to an increase in BRET ratio. For detailed information see the Materials and Methods section.
In signaling assays testing the boosting ability of basic peptides, transfected cells were aliquoted into 96-well plates in the presence of 10 µM peptide or PBS vehicle. After R-Luc substrate addition, chemokines were added to reach final concentrations ranging from 0–100 nM (0, 0.1, 1, 10, and 100 nM) and forskolin was applied before reading emission at 475 and 525 nm.
BRET measurements of Gαi signaling and β-arrestin recruitment: Cells were seeded in 6-well plates (500,000 cells/well) and transiently transfected the following day. For BRET measurements of Gαi signaling, cells were transfected with vectors encoding the human chemokine receptors as indicated (160 ng/well) and the CAMYEL sensor (cAMP sensor, YFP-Epac-RLuc) (840 ng/well) using Lipofectamine (6 µL/well). Briefly, DNA was dissolved in 125 µL OPTI-MEM and Lipofectamine was dissolved in 125 µL OPTI-MEM. The DNA and Lipofectamine solutions were combined into a transfection mixture. The transfection mixture was added dropwise to cells incubated in OPTI-MEM (1 mL/well). Transfections were terminated after 5 h by adding 1 mL of fresh culture medium on top of the OPTI-MEM. The following day the cells were loosened from the plates in PBS with 5 mM glucose and subsequently aliquoted in white 96-well iso plates (~25,000 cells/well). When using C21TP variants and defense peptides (hBD2 and histatin), these were added to a final concentration of 10 μM/well, while an equal amount of PBS was added to control cells. The bioluminescence substrate coelenterazine was added to a final conc. of 5 µM. After 10 min, varying ligand concentrations were added. For BRET measurements of Gαi signaling, forskolin was added 5 min after the addition of the ligand, to a final conc. of 5 µM. The plates were kept in the dark at all times. A Perkin Elmer Envision machine was used for measuring the emission signals at 530 and 480 nm. The BRET signal is determined as the ratio eYFP (530 nm)/Rluc (480 nm).
BRET principle with CAMYEL: For quantification of signaling initiated immediately downstream of receptor activation, we used the cAMP binding CAMYEL sensor to perform bioluminescence resonance energy transfer (BRET) based assays. In this assay we measure changes in intracellular cAMP levels in response to receptor activation. Activation of chemokine receptors lead to a decrease in cAMP through inhibition of adenylate cyclase (AC). In the current setup we initially add forskolin that stimulates AC directly to induce an increase in intracellular cAMP, and we then measure the ability of a ligand (chemokine) to counteract the forskolin-induced increase in cAMP. The cAMP sensor (CAMYEL cAMP sensor, YFP-Epac-RLuc) carries the donor Renilla luciferase (Rluc) and the acceptor YFP. Coelenterazine is a substrate for Rluc that will emit light at around 475 nm upon enzymatic cleavage catalyzed by Rluc. When Rluc and YFP are in close proximity, the energy from the emitted light from coelenterazine can be transferred to YFP, resulting in an excitation of YFP, leading to a BRET signal around 525 nm. EPAC is a cAMP binding protein that changes conformation upon cAMP binding. During low cAMP concentrations, Rluc and YFP are near each other, and a strong BRET signal at 525 nm is obtained. When cAMP levels increase, cAMP will bind to EPAC, creating a conformational change, separating Rluc and YFP, reducing the BRET ratio, and increasing the emission from Rluc at 475 nm. Thus, by measuring the ratio between the cAMP-bound (475 nm) and the cAMP-free (525 nm) state of CAMYEL we obtain a measure of receptor activation. […]

naked CCR1 N-terminus = naked CCR1 N-terminus (Homo sapiens, UniProt P32246); test: Fluorescence polarization binding to FAM-labeled CCR1 N-terminal peptide; conditions: FAM-labeled CCR1 N-terminal peptide
Method: (§1) Fluorescence polarization (FP) assay: The carboxyfluorescein (FAM)-labeled peptides representing the CCR1 and CCR5 N-termini functioned as the probes for quantifying the interaction between the receptor N-terminus and C21TP^81-111. The probe was diluted in FP buffer (1:3, PBS:MilliQ) and 10 µL was added to a final concentration of 250 nM per well in a black 384-well plate (Corning). The C21TP^81-111 peptide (2 mM) was diluted using a two-fold dilution series; 30 µL of the peptide was added to each well to final concentrations ranging from 12.21 nM to 100 µM. Blanks containing 10 µL probe and 30 µL FP buffer were included. The plate was spun down at 1000 rpm for 1 min and the FP signal was measured on a Flex station using SoftMax Pro software 7.0. Each experiment was conducted in triplicate. The binding curves were generated by plotting the FP signal, expressed as millipolarization units (mP), against C21TP^81-111 concentration. The dissociation constant (Kd) value was calculated using GraphPad Prism 9.
(§2) Probes: • CCR1: (5,6-FAM)-[…], • CCR5: (5,6-FAM)-ADYQVSSPIYDINYYTSEP.

naked CCR5 N-terminus = test: Fluorescence polarization binding to FAM-labeled CCR5 N-terminal peptide; set-up: species or system human
Method: as §1, §2

[1] = molecular target: T2, chemokine receptor CCR1 (untagged, wild type) (human) (UniProt P32246)
T2 sequence: T1 sequence (P32246 1-355)

[2] = molecular target: chemokine receptor CCR5 (untagged, wild type) (human) (UniProt P51681)
CCL5 (Homo sapiens) = CCL5 (Homo sapiens) (UniProt P13501); conditions: cited from earlier work
CCL2 (Homo sapiens) [3] = molecular target: CCL2 (Homo sapiens) (UniProt P13500); conditions: cited from earlier work
CCL7 (Homo sapiens) = CCL7 (Homo sapiens) (UniProt P80098); conditions: cited from earlier work
CCL2 (Homo sapiens) [4] = molecular target: CCL2 (Homo sapiens) (UniProt P13500); conditions: cited from earlier work; remark: listed apart in the source
[5] = molecular target: fully sulfated version of the CCR1 N-terminal peptide; set-up: method as in PMID 30567735; conditions: read-out: affinity for the fully sulfated version of the CCR1 N-terminal peptide; cited from earlier work
[6] = tested on: peptide corresponding to the CCR2 receptor N-terminus; conditions: cited from earlier work
CCR2 = conditions: mean ± SD; SD; read-out: binding affinity, Kd, for the WT receptor CCR2; cited from earlier work
Description: (§3) The reliance on electrostatic interactions between basic amino acids in the chemokine and acidic regions in the receptor N-terminus for chemokine receptor binding is illustrated by a study carried out by Hemmerich et al.. To investigate the influence of charge, hydrophobicity, and aromaticity on binding of CCL2 to its cognate receptor CCR2, this group substituted all surface-exposed residues on CCL2 by alanine. […] In contr ...

CCR2 D25A/D27A mutant = conditions: cited from earlier work
Description: as §3

[7] = molecular target: T3, FAM-labelled peptide corresponding to the naked (unmodified) CCR1 N-terminus (human, 5,6-carboxyfluorescein (5,6-FAM) on the N-terminus); test: fluorescence polarisation; FAM-labelled receptor N-terminal peptide as probe at 250 nM in FP buffer (1:3, PBS:MilliQ), black 384-well plate; basic peptide titrated in a two-fold series, 12.21 nM to 100 µM (told for C21TP^81-111); triplicates; Kd fitted in GraphPad Prism 9; conditions: both partners purified
T3 construct: first printed residue of the probe; stretch of the N-terminus of the chemokine receptor CCR1, not sulfated, not glycosylated; also called CCR1 N-terminal peptide; CCR1 probe
T3 peptide: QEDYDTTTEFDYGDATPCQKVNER

Sequence of CCL2 (Homo sapiens) (P13500 24-99): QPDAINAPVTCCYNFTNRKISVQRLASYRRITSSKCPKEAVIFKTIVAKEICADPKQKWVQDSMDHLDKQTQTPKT
Sequence of chemokine receptor CCR5 (untagged, wild type) (human) (P51681 whole entry): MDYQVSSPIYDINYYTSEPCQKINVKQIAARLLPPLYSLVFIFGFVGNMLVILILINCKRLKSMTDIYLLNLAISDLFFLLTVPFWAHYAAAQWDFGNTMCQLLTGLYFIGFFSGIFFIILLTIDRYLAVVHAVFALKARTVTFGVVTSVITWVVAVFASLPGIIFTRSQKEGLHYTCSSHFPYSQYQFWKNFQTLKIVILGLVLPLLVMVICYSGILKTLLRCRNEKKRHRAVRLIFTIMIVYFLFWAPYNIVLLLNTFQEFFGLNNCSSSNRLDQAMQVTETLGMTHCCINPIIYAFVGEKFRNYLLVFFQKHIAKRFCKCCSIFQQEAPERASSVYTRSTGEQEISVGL
Sequence of CCL7 (Homo sapiens) (P80098 24-99): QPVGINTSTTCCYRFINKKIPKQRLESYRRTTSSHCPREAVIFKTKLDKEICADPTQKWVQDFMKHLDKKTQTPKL
Sequence of CCL5 (Homo sapiens) (P13501 24-91): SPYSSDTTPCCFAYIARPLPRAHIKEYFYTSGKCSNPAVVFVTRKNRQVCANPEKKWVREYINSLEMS

Molecule: CCR1 N-terminus (from UniProt P32246)
Kd (CCL5 (Homo sapiens)): 100 nM
Kd (CCL2 (Homo sapiens) [3]): 100 nM
Kd (CCL7 (Homo sapiens)): 100 nM

Molecule: CCR2 (from UniProt P41597)
Kd (CCL2 (Homo sapiens) [4]): > 3 nM

Molecule: CCL7: human chemokine from Peprotech
Gαi signaling via CCR1 in DeltaSia and sC cells compared to WT cells (CCR1; HEK293 DeltaSia and sC): persists in DeltaSia and sC to almost the same high level as observed in WT cells
Kd [5]: 100 nM
increase of chemokine binding by tyrosine sulfation of the CCR2 N-terminus peptide [6]: up to 36 fold

Molecule: CCL2: human chemokine from Peprotech
Kd (CCR2): 0.066 ± 0.01 nM
reduction in affinity, D25A/D27A mutant versus WT CCR2 (CCR2 D25A/D27A mutant): approximately 50 fold
Kd (CCR2 D25A/D27A mutant; read-out: binding affinity, Kd, for the D25A/D27A mutant version of CCR2): ≥ 3 nM
Gαi signaling response of M1-CCR1 to ligand (CCR1; M1-tagged CCR1, HEK293 WT cells): to a minor degree
Kd [5]: 100 nM

Further lines, with some results ahead:

effect on CCL3-induced Gαi signaling via CCR1 (CCR1): not affected
binding to the naked CCR1 N-terminus (naked CCR1 N-terminus): bind in a dose-dependent manner
binding to the naked CCR5 N-terminus (naked CCR5 N-terminus): neither of the HDPs bound
Molecule: human beta defensin 2 (GIGDPVTCLKSGAICHPVFCPRRYKQIGTCGLPGTKCCKKP; ends and bridges not checked; cysteine pairing not given here) [hBD2, human anti-microbial / host defense peptide, from Caslo, reference compound]
boosting of CCL5-induced Gαi signaling via CCR1 (CCR1): as efficient in boosting signaling via CCR1 by CCL5 and CCL7 as C21TP^81-111
boosting of CCL7-induced Gαi signaling via CCR1 (CCR1): as efficient in boosting signaling via CCR1 by CCL5 and CCL7 as C21TP^81-111

LogEC50 of CCL5-induced Gαi signaling (CAMYEL cAMP BRET) via CCR1 in CHO GAG-minus cells [1]: -9.42
LogEC50 of CCL5-induced Gαi signaling (CAMYEL cAMP BRET) via CCR1 in CHO GAG-plus (WT) cells [1]: -8.89
LogEC50 of CCL5-induced Gαi signaling (CAMYEL cAMP BRET) via CCR5 in CHO GAG-minus cells [2]: -9.63
LogEC50 of CCL5-induced Gαi signaling (CAMYEL cAMP BRET) via CCR5 in CHO GAG-plus (WT) cells [2]: -7.52
Molecule: Human CCL5 (from UniProt P13501 24-91) (ligand)

effect on CCL3-induced Gαi signaling via CCR1 (CCR1): not affected
binding to the naked CCR1 N-terminus (naked CCR1 N-terminus): bind in a dose-dependent manner
binding to the naked CCR5 N-terminus (naked CCR5 N-terminus): neither of the HDPs bound
Molecule: histatin1: human host defense peptide, less basic than hBD2, from Caslo (DSHEKRHHGYRRKFHEKHHSHREFPFYGDYGSNYLYDN) [reference compound]
boosting of CCL5-induced Gαi signaling via CCR1 (CCR1): also boosted the potency of both these chemokines, although to a lesser extent
boosting of CCL7-induced Gαi signaling via CCR1 (CCR1): also boosted the potency of both these chemokines, although to a lesser extent

Kd [7]: ~2890 nM
B1: C21TP^81-111, basic C-terminal peptide of the chemokine CCL21 (last 31 aa, residues 81-111) (peptide, UniProt O00585 104-134, looked up)
peptide: RKDRGASKTGKKGKGSKGCKRTERSQTPKGP
notes: also called C-terminal peptide of CCL21; source: bought: Caslo (Lyngby, Denmark)
